What is called Kd is a measure of binding affinity in units of concentration.

Here are results for 1 molecule from paper PMC9348634, “Insight into the mechanism of DNA synthesis by human terminal deoxynucleotidyltransferase”.

Conditions in all cases: label: 5'-FAM; single strand
Data set [1] has as its target T1, terminal deoxynucleotidyltransferase (TdT) (human, UniProt P04053 1-509). The data set is described as follows: MST; 5.0 mM Mg2+; MST with 5.0 mM Mg2+ (Mn2+ or Co2+ in other runs, concentration not given); buffer, salt, pH and temperature not in the material.
The target in data set [2] is T1, terminal deoxynucleotidyltransferase …. The data set can be described thus: MST; Co2+; Kd treated by authors as estimate; MST with 5.0 mM Mg2+ (Mn2+ or Co2+ in other runs, concentration not given); buffer, salt, pH and temperature not in the material.
For data set [3] the target is unchanged. The data set can be described thus: MST; Mn2+; Kd treated by authors as estimate; MST with 5.0 mM Mg2+ (Mn2+ or Co2+ in other runs, concentration not given); buffer, salt, pH and temperature not in the material.

T1 sequence (P04053 whole entry): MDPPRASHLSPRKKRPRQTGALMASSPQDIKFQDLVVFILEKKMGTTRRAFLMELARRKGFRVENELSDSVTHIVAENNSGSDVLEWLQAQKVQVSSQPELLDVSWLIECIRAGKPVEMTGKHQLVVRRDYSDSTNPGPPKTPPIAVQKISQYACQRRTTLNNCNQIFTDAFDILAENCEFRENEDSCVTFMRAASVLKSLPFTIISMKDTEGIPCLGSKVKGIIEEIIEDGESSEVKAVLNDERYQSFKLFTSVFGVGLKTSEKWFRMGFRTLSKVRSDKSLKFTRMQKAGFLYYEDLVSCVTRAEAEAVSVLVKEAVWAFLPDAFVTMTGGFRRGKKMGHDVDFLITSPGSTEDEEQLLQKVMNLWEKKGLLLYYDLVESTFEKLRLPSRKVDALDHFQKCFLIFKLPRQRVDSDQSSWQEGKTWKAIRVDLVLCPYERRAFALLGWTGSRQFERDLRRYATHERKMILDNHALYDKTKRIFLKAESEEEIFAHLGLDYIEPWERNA

GGAAGA (ssDNA) [DNA primer FAM-GGAAGA]: the Kd in data set [1] was 4600 ± 100 nM; in data set [2], 700 ± 100 nM; in data set [3], 800 ± 200 nM.
